Results: patent publication US20240117034A1 (SHANGHAI JEMINCARE PHARMACEUTICAL, published 2024)

How the values were obtained:
[1] = biological target: human GARP/human latent TGF-β1 complex on recombinant cells (293F-hGARP/hTGF-β1, CHOK1-hGARP/hTGF-β1) (human) (UniProt Q14392); experiment: flow cytometry on 293F-hGARP/hTGF-β1 clone 2D3
[2] = biological target: human GARP/human latent TGF-β1 complex on recombinant cells (293F-hGARP/hTGF-β1, CHOK1-hGARP/hTGF-β1) (human) (UniProt Q14392); experiment: flow cytometry on 293F-hGARP/hTGF-β1 clone 2F4
[3] = biological target: T1, human GARP/human latent TGF-β1 complex on recombinant cells (293F-hGARP/hTGF-β1, CHOK1-hGARP/hTGF-β1) (human, UniProt Q14392 20-662; P01137 30-390); experiment: flow cytometry titration on 293F-hGARP/hTGF-β1 cells, Alexa 488 anti-mouse IgG secondary
T1 construct: whole, on cells; Both full-length proteins were co-expressed on 293F or CHOK1 cells; The host cell of each assay is named in the assay field; also called 293F-hGARP/hTGF-β1 complex; clones 2F4 and 2D3
T1 sequence (Q14392 20-662, chain 1 of 2): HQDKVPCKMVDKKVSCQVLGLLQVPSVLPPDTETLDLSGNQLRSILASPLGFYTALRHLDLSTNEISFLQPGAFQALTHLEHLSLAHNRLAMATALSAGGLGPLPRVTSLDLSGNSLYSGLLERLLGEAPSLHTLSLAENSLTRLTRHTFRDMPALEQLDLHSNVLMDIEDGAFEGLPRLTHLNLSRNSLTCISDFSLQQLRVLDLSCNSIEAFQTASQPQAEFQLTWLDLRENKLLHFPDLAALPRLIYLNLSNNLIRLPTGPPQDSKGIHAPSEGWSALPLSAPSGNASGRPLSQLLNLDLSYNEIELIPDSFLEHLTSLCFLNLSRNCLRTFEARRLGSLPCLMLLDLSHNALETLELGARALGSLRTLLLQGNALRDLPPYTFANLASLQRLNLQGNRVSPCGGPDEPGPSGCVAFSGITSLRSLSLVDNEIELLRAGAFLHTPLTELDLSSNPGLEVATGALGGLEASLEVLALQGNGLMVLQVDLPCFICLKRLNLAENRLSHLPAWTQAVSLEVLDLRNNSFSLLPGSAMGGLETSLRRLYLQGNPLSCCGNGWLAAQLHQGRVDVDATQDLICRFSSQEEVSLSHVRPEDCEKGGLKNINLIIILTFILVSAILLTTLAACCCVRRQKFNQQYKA
T1 sequence (P01137 30-390, chain 2 of 2): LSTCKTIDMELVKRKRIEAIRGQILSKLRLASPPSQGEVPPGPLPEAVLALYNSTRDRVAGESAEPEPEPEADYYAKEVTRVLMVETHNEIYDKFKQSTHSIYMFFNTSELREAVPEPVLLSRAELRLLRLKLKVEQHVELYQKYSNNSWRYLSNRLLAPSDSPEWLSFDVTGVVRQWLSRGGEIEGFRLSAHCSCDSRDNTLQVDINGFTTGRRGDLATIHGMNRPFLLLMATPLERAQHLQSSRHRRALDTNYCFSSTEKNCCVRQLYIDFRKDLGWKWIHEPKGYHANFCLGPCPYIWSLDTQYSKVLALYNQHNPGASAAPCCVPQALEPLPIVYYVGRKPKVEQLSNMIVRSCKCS
Description: The cells were counted and centrifuged at 300 g for 5 min, the supernatant was discarded, the cell pellet was resuspended and washed with 1×PBS, then centrifuged at 300 g for 5 min, the supernatant was discarded, and then the cell pellet was resuspended with FACS buffer containing 2% FBS to adjust to a density of 1e6 cells/mL. The cells were plated at a density of 1e5 cells/well for a constant volume of 100 μL/well at 4° C. for 0.5 h, and centrifuged at 300 g for 5 min, and the supernatant was discarded. The antibody to be tested was prepared in FACS buffer containing 2% FBS with a starting concentration of 15 µg/mL, followed by serial dilution with a dilution factor of 1:5 in a total of 7 gradients, and then was added for a constant volume of 100 μL/well, with 0 μg/mL as a control, the dilution was pipetted and mixed thoroughly at 4° C. for 1 h, and centrifuged at 300 g for 5 min, and the supernatant was discarded. 1×PBS was added for a constant volume of 200 μL/well to resuspend and mix the cell pellet thoroughly, followed by centrifugation at 300 g for 5 min, the supernatant was discarded, and the steps were repeated twice. […] The cell pellet was resuspended in FACS buffer containing 2% FBS to read on a FACS machine. […]

[4] = biological target: T1, human GARP/human latent TGF-β1 complex …; experiment: flow cytometry competition on 293F-hGARP/hTGF-β1 cells; the competitor is Alexa 488-labelled MHG8 at a fixed concentration; falling curve
[5] = biological target: T2, hGARP/hTGF-β1 complex (Kactus Biosystems, Cat. No.: GAR-HM4TG) (human, UniProt Q14392 20-627; P01137 30-390, limits assumed); experiment: Octet RED96e (BLI), antibody captured on AHC sensor, complex in solution from 100 nM, 1:1 model
T2 construct: Bought soluble recombinant complex; also called antigen (hGARP/hTGF-β1 complex)
T2 sequence (Q14392 20-627 limits assumed, chain 1 of 2): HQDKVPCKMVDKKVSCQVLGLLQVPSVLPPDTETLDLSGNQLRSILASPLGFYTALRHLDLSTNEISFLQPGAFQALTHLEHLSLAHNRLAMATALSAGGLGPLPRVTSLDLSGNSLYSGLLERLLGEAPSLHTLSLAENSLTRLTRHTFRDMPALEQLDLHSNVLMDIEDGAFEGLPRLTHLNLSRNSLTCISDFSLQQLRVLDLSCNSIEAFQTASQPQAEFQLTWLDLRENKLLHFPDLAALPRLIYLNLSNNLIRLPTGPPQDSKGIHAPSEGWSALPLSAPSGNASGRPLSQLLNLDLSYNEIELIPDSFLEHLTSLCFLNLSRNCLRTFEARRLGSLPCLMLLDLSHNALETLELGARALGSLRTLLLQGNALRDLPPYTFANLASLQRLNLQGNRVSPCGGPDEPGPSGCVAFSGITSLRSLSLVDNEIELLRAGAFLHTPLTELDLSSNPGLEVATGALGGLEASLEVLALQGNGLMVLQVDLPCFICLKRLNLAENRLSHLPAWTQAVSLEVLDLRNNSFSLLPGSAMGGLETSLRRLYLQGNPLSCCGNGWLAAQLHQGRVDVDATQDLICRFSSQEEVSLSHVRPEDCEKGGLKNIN
T2 sequence (P01137 30-390 limits assumed, chain 2 of 2): as the sequence (P01137 30-390, chain 2 of 2) above

Sequence of human GARP/human latent TGF-β1 complex on recombinant cells (293F-hGARP/hTGF-β1, CHOK1-hGARP/hTGF-β1) (human) (Q14392 20-662, chain 1 of 2): as the sequence (Q14392 20-662, chain 1 of 2) above
Sequence of human GARP/human latent TGF-β1 complex on recombinant cells (293F-hGARP/hTGF-β1, CHOK1-hGARP/hTGF-β1) (human) (P01137 30-390, chain 2 of 2, further chain): as the sequence (P01137 30-390, chain 2 of 2) above

Molecule	Mean maximum fluorescence intensity (MFI) [1] [MFI]	Mean maximum fluorescence intensity (MFI) [2] [MFI]	EC50 [3] [µg/mL]	EC50 [4] [µg/mL]	Kd [5] [nM]	koff [5] [s⁻¹]	kon [5] [M⁻¹ s⁻¹]
Isotype control-APC (antibody)	103	90	–	–	–	–	–
Isotype control-FITC (antibody)	103	101	–	–	–	–	–
anti-human GARP antibody-FITC (Enzo life science, ALX-804-867FI-0100)	6960	8370	–	–	–	–	–
anti-human TGF-β1 antibody, Anti-LAP (TGF-β1) Antibody-APC (R&D Systems, FAB2463A)	142000	150000	–	–	–	–	–
murine anti-human GARP monoclonal antibody 8H2D7B3 (antibody, V domains shown, Antibody purified from the hybridoma; It was detected with anti-mouse IgG, and mouse IgG1 served as isotype control; also called murine antibody 8H2D7B3) VH: QVQLQQSGAELVRPGSSVKLSCKASGYTLSNYWMYWVKQRPIQGLEWIGSIAPSDSETHYNQKFKDRATVTVDKSSRIVYMQLSSLTSEDSAVYFCARGGFGYGSSHWYFDVWGTGTTVTVSS VL: DIQMTQSSAYLSVSLGGRVTITCKASDHINKWLAWYQQKPGNAPRLLISGATSLETGIPSRFSGSGSGKDYTLSITGLQTEDVATYYCQQYWTTPYTFGGGTKLEIK	–	–	0.108	1.61	–	–	–
MHG8 (anti-human GARP antibody) (antibody, V domains shown) VH: QVQLKESGPGLVAPSQSLSITCTVSGFSLTGYGINWVRQPPGKGLEWLGMIWSDGSTDYNSVLTSRLRISKDNSNSQVFLKMNSLQVDDTARYYCARDRNYYDYDGAMDYWGQGTSVTVSS VL: DIQVTQSSSYLSVSLGDRVTITCKASDHIKNWLAWYQQKPGIAPRLLVSGATSLEAGVPSRFSGSGSGKNFTLSITSLQTEDVATYYCQQYWSTPWTFGGGTTLEIR	–	–	0.12	2.74	0.205	2.85e-05	139000
